B1: 14‐3‐3γ (natural protein, human, UniProt P61981 1-247, looked up)
chain: MVDREQLVQKARLAEQAERYDDMAAAMKNVTELNEPLSNEERNLLSVAYKNVVGARRSSWRVISSIEQKTSADGNEKKIEMVRAYREKIEKELEAVCQDVLSLLDNYLIKNCSETQYESKVFYLKMKGDYYRYLAEVATGEKRATVVESSEKAYSEAHEISKEHMQPTHPIRLGLALNYSVFYYEIQNAPEQACHLAKTAFDDAIAELDTLNEDSYKDSTLIMQLLRDNLTLWTSDQQDDDGGEGNN
notes: 14-3-3 gamma, human, full-length protein from the pProEx HTb-His-14-3-3 construct; Written as the protomer; tag removal is told only for the ∆C proteins; source: E. coli BL21(DE3), purified (Ni2+-NTA, dialysis)
B2: FAM‐Ahx‐hDM2_(160‐192) ^pSer166/pSer186 (peptide)
peptide: SRRRAISETEENSDELSGERQRKRHKSDSISLS
modifications: phosphoserine at 166 and at 186; N-terminal FAM-Ahx (5,6-carboxyfluorescein on an aminohexanoic acid linker); C-terminal amide
notes: hDM2 (human double minute 2 protein), human, residues 160-192; Tracer form used in the FA assays; source: synthetic peptide (Fmoc SPPS on Rink amide ProTide resin, HPLC purified)
B3: 14‐3‐3η (natural protein, human, UniProt Q04917 1-246, looked up)
chain: MGDREQLLQRARLAEQAERYDDMASAMKAVTELNEPLSNEDRNLLSVAYKNVVGARRSSWRVISSIEQKTMADGNEKKLEKVKAYREKIEKELETVCNDVLSLLDKFLIKNCNDFQYESKVFYLKMKGDYYRYLAEVASGEKKNSVVEASEAAYKEAFEISKEQMQPTHPIRLGLALNFSVFYYEIQNAPEQACLLAKQAFDDAIAELDTLNEDSYKDSTLIMQLLRDNLTLWTSDQQDEEAGEGN
notes: 14-3-3 eta, human, full-length protein from the pProEx HTb-His-14-3-3 construct; Captured on an NTA chip in SPR; source: E. coli BL21(DE3), purified (Ni2+-NTA, dialysis)

Series [1] addresses T1, FAM‐Ahx‐hDMX_(335‐373) ^pSer342/pSer367 (human, phosphoserine at 342 and at 367; N-terminal FAM-Ahx (5,6-carboxyfluorescein on an aminohexanoic acid linker); C-terminal amide).
T1 construct: hDMX (human double minute 4 protein, hDM4), human, residues 335-373; Tracer form used in the FA assays; source: synthetic peptide (Fmoc SPPS on Rink amide ProTide resin, HPLC purified)
T1 peptide: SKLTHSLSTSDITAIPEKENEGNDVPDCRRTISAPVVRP
Description: fluorescence polarisation; fluorescence anisotropy, direct titration: 14-3-3 protein titrated (1/2 dilution series) against 50 nM FAM-Ahx tracer peptide; 10 mM HEPES, 150 mM NaCl, 0.1% Tween 20, 0.1% BSA, pH 7.4; 384 well plates, triplicates; protein concentration as 14-3-3 monomer; 1:1 fit, biphasic curves fitted as two separate 1:1 events (Kd1, Kd2). To be noted: both partners purified. (In general: Polarisation of emitted light reports the rotation of a fluorescent probe.)

Series [2] has as its target B2. The series is described as above. To be noted: both partners purified.
Another series deals with T2, 14‐3‐3β (human, UniProt P31946 1-246).
T2 construct: 14-3-3 beta, human, full-length protein from the pProEx HTb-His-14-3-3 construct; Written as the protomer; tag removal is told only for the ∆C proteins; source: E. coli BL21(DE3), purified (Ni2+-NTA, dialysis)
T2 sequence (looked up): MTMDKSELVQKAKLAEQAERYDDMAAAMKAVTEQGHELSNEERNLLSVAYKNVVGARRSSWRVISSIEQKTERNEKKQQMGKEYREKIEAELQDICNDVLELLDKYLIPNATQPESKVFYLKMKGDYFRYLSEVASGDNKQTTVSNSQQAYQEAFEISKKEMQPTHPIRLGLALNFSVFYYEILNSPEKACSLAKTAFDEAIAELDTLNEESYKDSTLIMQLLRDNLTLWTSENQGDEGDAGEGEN
The series is described as above. As to conditions: both partners purified.

A further series concerns the target T3, 14‐3‐3τ (human, UniProt P27348 1-245).
T3 construct: 14-3-3 tau/theta, human, full-length protein from the pProEx HTb-His-14-3-3 construct; Written as the protomer; tag removal is told only for the ∆C proteins; also called τ/θ; source: E. coli BL21(DE3), purified (Ni2+-NTA, dialysis)
T3 sequence (looked up): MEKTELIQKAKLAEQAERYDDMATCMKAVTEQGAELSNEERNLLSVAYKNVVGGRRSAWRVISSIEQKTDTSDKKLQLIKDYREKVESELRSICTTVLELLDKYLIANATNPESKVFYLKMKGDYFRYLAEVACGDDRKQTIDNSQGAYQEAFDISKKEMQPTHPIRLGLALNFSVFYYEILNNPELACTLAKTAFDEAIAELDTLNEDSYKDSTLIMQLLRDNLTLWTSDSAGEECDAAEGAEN
The series is described as above. To be noted: both partners purified.

The target of a further series is T4, 14‐3‐3ζ (human, UniProt P63104 1-245).
T4 construct: 14-3-3 zeta, human, full-length protein from the pProEx HTb-His-14-3-3 construct; Written as the protomer; tag removal is told only for the ∆C proteins; source: E. coli BL21(DE3), purified (Ni2+-NTA, dialysis)
T4 sequence (looked up): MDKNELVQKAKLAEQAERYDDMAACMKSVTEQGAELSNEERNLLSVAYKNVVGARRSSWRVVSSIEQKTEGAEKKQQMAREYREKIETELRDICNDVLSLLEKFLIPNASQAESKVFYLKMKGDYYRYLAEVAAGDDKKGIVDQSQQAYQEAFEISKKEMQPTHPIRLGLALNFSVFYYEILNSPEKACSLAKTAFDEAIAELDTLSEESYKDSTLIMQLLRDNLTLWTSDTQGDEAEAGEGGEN
Described as above. To be noted: both partners purified.

For a further series, the target named is T5, 14‐3‐3σ (human, UniProt P31947 1-248).
T5 construct: 14-3-3 sigma, human, full-length protein from the pProEx HTb-His-14-3-3 construct (used in the FA assays); Written as the protomer; tag removal is told only for the ∆C proteins; source: E. coli BL21(DE3), purified (Ni2+-NTA, dialysis)
T5 sequence (looked up): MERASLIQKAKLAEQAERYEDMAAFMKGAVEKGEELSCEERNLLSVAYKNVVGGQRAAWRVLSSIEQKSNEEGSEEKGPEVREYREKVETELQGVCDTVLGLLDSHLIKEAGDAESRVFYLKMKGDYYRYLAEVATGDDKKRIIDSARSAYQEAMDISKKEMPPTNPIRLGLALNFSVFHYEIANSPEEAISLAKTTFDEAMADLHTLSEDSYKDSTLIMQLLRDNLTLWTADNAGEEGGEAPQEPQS
Described as above. To be noted: both partners purified.

The target in the next series is T6, 14‐3‐3ε (human, UniProt P62258 1-255).
T6 construct: 14-3-3 epsilon, human, full-length protein from the pProEx HTb-His-14-3-3 construct; Written as the protomer; tag removal is told only for the ∆C proteins; source: E. coli BL21(DE3), purified (Ni2+-NTA, dialysis)
T6 sequence (looked up): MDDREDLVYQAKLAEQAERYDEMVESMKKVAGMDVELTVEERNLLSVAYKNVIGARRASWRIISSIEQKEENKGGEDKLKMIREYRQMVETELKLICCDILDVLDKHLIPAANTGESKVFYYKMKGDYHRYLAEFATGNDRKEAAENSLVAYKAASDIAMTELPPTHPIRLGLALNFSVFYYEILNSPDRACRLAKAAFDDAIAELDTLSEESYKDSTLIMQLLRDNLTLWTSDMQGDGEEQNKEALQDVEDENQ
Described as above. To be noted: both partners purified.

Series [3] deals with the molecule itself. Description: AUC; sedimentation velocity; 14 μM 14-3-3η alone or with 7 μM or 14 μM hDMX pSer342/pSer367 peptide; 10 mM HEPES, 150 mM NaCl, pH 7.4; 25 °C; c(s) by SEDFIT.

As usually defined, the stoichiometry N is the number of molecules, sites or subunits per partner or assembly.

B1: the “Kd1 (first binding event)” value amounted to 0.091 ± 0.015 µM in series [1] and 0.089 ± 0.01 µM in series [2].
For the molecule B2, the binding result with 14‐3‐3β, in the series with 14‐3‐3τ, in the series with 14‐3‐3ζ, with 14‐3‐3σ and with 14‐3‐3ε was “binds” in each case.
In the case of B3, the “stoichiometry N” value in series [3] stood at 2. Further, the “Kd1 (first binding event)” value in series [1] turned out to be 0.03 ± 0.006 µM; in series [2], 0.05 ± 0.012 µM.

For the origin of these results see publication PMC9541495, “Understanding the interaction of 14‐3‐3 proteins with hDMX and hDM2: a structural and biophysical study” (The Febs Journal, 2022).
